Experimental findings from patent US20140249468A1 (UNITED STATES OF AMERICA AS REPRESENTED BY THE SECRETARY …, published 2014) are described below.

What is called IC50 is the concentration needed to halve the response being measured. High values mean lower potency, low ones higher potency.

In test [1] the target is T1, APMA-activated recombinant human MMP-2 (human, UniProt P08253 110-660, limits assumed).
T1 sequence (looked up): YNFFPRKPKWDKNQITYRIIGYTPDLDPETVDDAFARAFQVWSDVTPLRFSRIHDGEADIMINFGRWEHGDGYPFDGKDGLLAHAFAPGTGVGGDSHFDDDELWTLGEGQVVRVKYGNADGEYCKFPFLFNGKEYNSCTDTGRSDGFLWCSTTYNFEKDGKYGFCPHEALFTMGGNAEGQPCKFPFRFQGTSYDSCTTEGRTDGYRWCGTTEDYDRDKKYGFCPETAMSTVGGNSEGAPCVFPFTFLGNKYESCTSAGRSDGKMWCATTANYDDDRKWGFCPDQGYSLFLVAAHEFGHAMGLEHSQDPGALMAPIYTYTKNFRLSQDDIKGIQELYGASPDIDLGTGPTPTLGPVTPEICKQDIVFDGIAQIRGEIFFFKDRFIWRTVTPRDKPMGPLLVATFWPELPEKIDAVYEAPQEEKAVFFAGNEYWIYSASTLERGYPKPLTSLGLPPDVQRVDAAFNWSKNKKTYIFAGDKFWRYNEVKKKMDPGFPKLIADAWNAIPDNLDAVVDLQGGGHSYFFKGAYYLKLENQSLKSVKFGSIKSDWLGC
The test can be described thus: cell-based or functional assay.

In test [2] the target is T2, ανβ3 integrin receptor on U87MG human glioma cells (human, UniProt P06756 31-1048; P05106 27-788).
T2 construct: whole, on cells; Endogenous receptor on U87MG cells; also called ανβ3 receptor
T2 sequence (P06756 31-1048, chain 1 of 2): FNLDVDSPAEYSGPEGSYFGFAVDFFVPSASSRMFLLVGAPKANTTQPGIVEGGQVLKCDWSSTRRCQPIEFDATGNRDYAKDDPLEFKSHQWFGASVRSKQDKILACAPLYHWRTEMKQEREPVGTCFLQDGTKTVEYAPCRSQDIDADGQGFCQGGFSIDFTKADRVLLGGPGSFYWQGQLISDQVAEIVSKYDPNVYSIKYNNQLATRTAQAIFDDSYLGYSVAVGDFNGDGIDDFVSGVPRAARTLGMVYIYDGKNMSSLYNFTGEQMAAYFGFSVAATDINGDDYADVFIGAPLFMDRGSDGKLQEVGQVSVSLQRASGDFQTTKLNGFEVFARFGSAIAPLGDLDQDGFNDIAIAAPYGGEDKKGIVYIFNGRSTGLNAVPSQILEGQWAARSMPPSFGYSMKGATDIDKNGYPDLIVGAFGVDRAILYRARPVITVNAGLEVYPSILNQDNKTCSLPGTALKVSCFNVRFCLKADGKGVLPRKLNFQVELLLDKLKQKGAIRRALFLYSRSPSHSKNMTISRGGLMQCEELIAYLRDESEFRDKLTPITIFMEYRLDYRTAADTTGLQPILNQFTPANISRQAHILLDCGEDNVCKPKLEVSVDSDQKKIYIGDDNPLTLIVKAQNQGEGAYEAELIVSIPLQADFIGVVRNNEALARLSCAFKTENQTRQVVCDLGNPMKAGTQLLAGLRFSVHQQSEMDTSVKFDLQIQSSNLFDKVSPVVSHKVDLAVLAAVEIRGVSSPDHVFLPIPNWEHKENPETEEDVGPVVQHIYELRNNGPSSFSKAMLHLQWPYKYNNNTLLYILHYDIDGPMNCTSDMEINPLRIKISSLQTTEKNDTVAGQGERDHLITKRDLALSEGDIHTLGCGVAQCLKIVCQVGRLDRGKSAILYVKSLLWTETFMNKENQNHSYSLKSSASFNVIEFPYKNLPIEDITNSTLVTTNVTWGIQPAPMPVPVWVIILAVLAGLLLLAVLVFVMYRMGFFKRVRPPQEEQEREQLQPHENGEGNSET
T2 sequence (P05106 27-788, chain 2 of 2): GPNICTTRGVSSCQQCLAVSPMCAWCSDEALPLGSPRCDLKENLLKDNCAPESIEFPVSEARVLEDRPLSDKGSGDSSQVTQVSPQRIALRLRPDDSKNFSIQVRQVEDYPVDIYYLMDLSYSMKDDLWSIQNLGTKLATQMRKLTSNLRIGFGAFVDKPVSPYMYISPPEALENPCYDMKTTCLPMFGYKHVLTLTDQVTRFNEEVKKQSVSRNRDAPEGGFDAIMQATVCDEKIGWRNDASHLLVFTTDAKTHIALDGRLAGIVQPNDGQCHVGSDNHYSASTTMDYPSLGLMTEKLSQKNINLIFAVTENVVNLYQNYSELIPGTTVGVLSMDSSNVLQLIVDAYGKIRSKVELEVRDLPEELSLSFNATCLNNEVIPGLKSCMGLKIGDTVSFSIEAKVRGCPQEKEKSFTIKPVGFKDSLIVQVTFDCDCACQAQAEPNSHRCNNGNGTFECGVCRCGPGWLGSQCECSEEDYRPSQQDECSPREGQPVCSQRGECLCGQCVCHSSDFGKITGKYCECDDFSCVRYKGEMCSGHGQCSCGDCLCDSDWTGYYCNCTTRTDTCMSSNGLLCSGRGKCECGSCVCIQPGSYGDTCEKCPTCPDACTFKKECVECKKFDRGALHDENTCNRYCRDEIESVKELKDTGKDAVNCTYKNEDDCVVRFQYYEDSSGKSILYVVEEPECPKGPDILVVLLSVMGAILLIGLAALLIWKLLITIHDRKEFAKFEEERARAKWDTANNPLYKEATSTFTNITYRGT
The test can be described thus: competitive cell-binding assay on U87MG cells, displacement of 125I-echistatin.
Description: Briefly, the U87MG cell line was cultured in DMEM medium containing 10% (v/v) fetal bovine serum supplemented with penicillin (100 μg/ml), streptomycin (100 μg/ml), non-essential amino acids (100 mM) and sodium pyruvate (1 mM) at 37° C. with 5% CO₂. […] After incubation, the plate was washed three times with PBS containing 0.1% BSA, and the radioactivity was measured by γ-counting. The IC₅₀ values were calculated by nonlinear regression analysis.

Square brackets hold non-standard residues; d marks the D form. Ends that are not written are not given here.

B1: compound 4 (MMP-P-RGD) (peptide)
peptide 1: {Cy5.5}-GPLGVRGK(BHQ‑3)GG
peptide 2: RGDYK
modifications: not fully specified (some residues); also: chain 1 C-terminal carboxyl conjugated to chain 2, c(RGDyK), linkage site not given here, head-to-tail to a chain's N/C-terminus
Consider B1, for which the “recovery of the NIR fluorescence signal” value in test [1] is greater than 20 fold.

B2: compound 7 (peptide)
peptide: cyclo(RGD[dY]K(CW800))
notes: Made by conjugating CW800 NHS ester to c(RGDyK); also called CW800-labelled c(RGDyK)
In test [2], B2 yielded an IC50 of 456 nM.
